Data: the supplement of paper PMC5998384

How the values were obtained:
HeLa Kyoto [1] = assay: thermal stability score vs G1/S (z-score of summed log2 fold changes over temperatures); higher = more thermally stable than in G1/S
HeLa Kyoto [2] = assay: solubility change mitosis vs G1/S (difference of NP-40 vs SDS log2 ratios) (log2 ratio difference); higher = more soluble in mitosis
HeLa Kyoto [3] = assay: solubility in G1/S (NP-40 vs SDS abundance) (log2 ratio); higher = more soluble; conditions: cell cycle stage: G1/S
[4] = cell cycle stage: early G1 (4.5 h after nocodazole release)
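Wherever solubility change mitosis vs G1/S (difference of NP-40 vs SDS log2 ratios) is given: synchronized HeLa Kyoto cells (double thymidine block for G1/S, nocodazole release for mitosis), protein amounts in NP-40 versus SDS lysates quantified by mass spectrometry, three biological replicates.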
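Wherever solubility in G1/S (NP-40 vs SDS abundance) is given: HeLa Kyoto cells arrested at G1/S by double thymidine block, proteins quantified by TMT10plex mass spectrometry in mild NP-40 versus SDS extracts, three biological replicates.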
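Wherever thermal stability score vs G1/S (z-score of summed log2 fold changes over temperatures) is given: synchronized HeLa Kyoto cells, proteins quantified by TMT10plex mass spectrometry, three biological replicates, mitosis taken 0.5 h after nocodazole release, G1/S directly after double thymidine block.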

Row | Sequence | thermal stability score (HeLa Kyoto [1]; [4]) | thermal stability score (HeLa Kyoto [1]; cell cycle stage: mitosis) | solubility change mitosis (log2) (HeLa Kyoto [2]) | solubility in G1/S (log2) (HeLa Kyoto [3])
1 | MSSMWSEYTIGGVKIYFPYKAYPSQLAMMNSILRGLNSKQHCLLESPTGSGKSLALLCSALAWQQSLSGKPADEGVSEKAEVQLSCCCACHSKDFTNNDMNQGTSRHFNYPSTPPSERNGTSSTCQDSPEKTTLAAKLSAKKQASIYRDENDDFQVEKKRIRPLETTQQIRKRHCFGTEVHNLDAKVDSGKTVKLNSPLEKINSFSPQKPPGHCSRCCCSTKQGNSQESSNTIKKDHTGKSKIPKIYFGTRTHKQIAQITRELRRTAYSGVPMTILSSRDHTCVHPEVVGNFNRNEKCMELLDGKNGKSCYFYHGVHKISDQHTLQTFQGMCKAWDIEELVSLGKKLKACPYYTARELIQDADIIFCPYNYLLDAQIRESMDLNLKEQVVILDEAHNIEDCARESASYSVTEVQLRFARDELDSMVNNNIRKKDHEPLRAVCCSLINWLEANAEYLVERDYESACKIWSGNEMLLTLHKMGITTATFPILQGHFSAVLQKEEKISPIYGKEEAREVPVISASTQIMLKGLFMVLDYLFRQNSRFADDYKIAIQQTYSWTNQIDISDKNGLLVLPKNKKRSRQKTAVHVLNFWCLNPAVAFSDINGKVQTIVLTSGTLSPMKSFSSELGVTFTIQLEANHIIKNSQVWVGTIGSGPKGRNLCATFQNTETFEFQDEVGALLLSVCQTVSQGILCFLPSYKLLEKLKERWLSTGLWHNLELVKTVIVEPQGGEKTNFDELLQVYYDAIKYKGEKDGALLVAVCRGKVSEGLDFSDDNARAVITIGIPFPNVKDLQVELKRQYNDHHSKLRGLLPGRQWYEIQAYRALNQALGRCIRHRNDWGALILVDDRFRNNPSRYISGLSKWVRQQIQHHSTFESALESLAEFSKKHQKVLNVSIKDRTNIQDNESTLEVTSLKYSTSPYLLEAASHLSPENFVEDEAKICVQELQCPKIITKNSPLPSSIISRKEKNDPVFLEEAGKAEKIVISRSTSPTFNKQTKRVSWSSFNSLGQYFTGKIPKATPELGSSENSASSPPRFKTEKMESKTVLPFTDKCESSNLTVNTSFGSCPQSETIISSLKIDATLTRKNHSEHPLCSEEALDPDIELSLVSEEDKQSTSNRDFETEAEDESIYFTPELYDPEDTDEEKNDLAETDRGNRLANNSDCILAKDLFEIRTIKEVDSAREVKAEDCIDTKLNGILHIEESKIDDIDGNVKTTWINELELGKTHEIEIKNFKPSPSKNKGMFPGFK [BRIP1] | 0.36 | 1.88 | -0.00076 | -0.0862
2 | MEEELQHSHCVNCVSRRCMTRPEPGISCDLIGCPLVCGAVFHSCKADEHRLLCPFERVPCLNSDFGCPFTMARNKVAEHLEMCPASVVCCTMEWNRWPVSYADRKSYENLSRDVDEVAQLDMALALQDQRMLLESLKVATMMSKATDKVSKPREQISVKSSVPEIPHANGLVSVDEESYGALYQATVETTRSLAAALDILNTATRDIGMLNTSVPNDMDEQQNARESLEDQNLKDQDHLYEEEIGAVGGIDYNDTNQNAQSEQNGSSDLLCDLNTSSYDTSALCNGFPLENICTQVIDQNQNLHGDSKQSNLTNGDCVASSDGTSKPSSSLAVAAQLREIIPSSALPNGTVQHILMPDDEGEGELCWKKVDLGDVKNVDVLSFSHAPSFNFLSNSCWSKPKEDKAVDTSDLEVAEDPMGLQGIDLITAALLFCLGDSPGGRGISDSRMADIYHIDVGTQTFSLPSAILATSTMVGEIASASACDHANPQLSNPSPFQTLGLDLVLECVARYQPKQRSMFTFVCGQLFRRKEFSSHFKNVHGDIHAGLNGWMEQRCPLAYYGCTYSQRRFCPSIQGAKIIHDRHLRSFGVQPCVSTVLVEPARNCVLGLHNDHLSSLPFEVLQHIAGFLDGFSLCQLSCVSKLMRDVCGSLLQSRGMVILQWGKRKYPEGNSSWQIKEKVWRFSTAFCSVNEWKFADILSMADHLKKCSYNVVEKREEAIPLPCMCVTRELTKEGRSLRSVLKPVL [FBXO30] | 0.306 | 1.03 | 0.106 | -0.564
3 | MASPRASRWPPPLLLLLLPLLLLPPAAPGTRDPPPSPARRALSLAPLAGAGLELQLERRPEREPPPTPPRERRGPATPGPSYRAPEPGAATQRGPSGRAPRGGSADAAWKHWPESNTEAHVENITFYQNQEDFSTVSSKEGVMVQTSGKSHAASDAPENLTLLAETADARGRSGSSSRTNFTILPVGYSLEIATALTSQSGNLASESLHLPSSSSEFDERIAAFQTKSGTASEMGTERAMGLSEEWTVHSQEATTSAWSPSFLPALEMGELTTPSRKRNSSGPDLSWLHFYRTAASSPLLDLSSSSESTEKLNNSTGLQSSSVSQTKTMHVATVFTDGGPRTLRSLTVSLGPVSKTEGFPKDSRIATTSSSVLLSPSAVESRRNSRVTGNPGDEEFIEPSTENEFGLTSLRWQNDSPTFGEHQLASSSEVQNGSPMSQTETVSRSVAPMRGGEITAHWLLTNSTTSADVTGSSASYPEGVNASVLTQFSDSTVQSGGSHTALGDRSYSESSSTSSSESLNSSAPRGERSIAGISYGQVRGTAIEQRTSSDHTDHTYLSSTFTKGERALLSITDNSSSSDIVESSTSYIKISNSSHSEYSSFFHAQTERSNISSYDGEYAQPSTESPVLHTSNLPSYTPTINMPNTSVVLDTDAEFVSDSSSSSSSSSSSSSSGPPLPLPSVSQSHHLFSSILPSTRASVHLLKSTSDASTPWSSSPSPLPVSLTTSTSAPLSVSQTTLPQSSSTPVLPRARETPVTSFQTSTMTSFMTMLHSSQTADLKSQSTPHQEKVITESKSPSLVSLPTESTKAVTTNSPLPPSLTESSTEQTLPATSTNLAQMSPTFTTTILKTSQPLMTTPGTLSSTASLVTGPIAVQTTAGKQLSLTHPEILVPQISTEGGISTERNRVIVDATTGLIPLTSVPTSAKEMTTKLGVTAEYSPASRSLGTSPSPQTTVVSTAEDLAPKSATFAVQSSTQSPTTVSSSASVNSCAVNPCLHNGECVADNTSRGYHCRCPPSWQGDDCSVDVNECLSNPCPSTAMCNNTQGSFICKCPVGYQLEKGICNLVRTFVTEFKLKRTFLNTTVEKHSDLQEVENEITKTLNMCFSALPSYIRSTVHASRESNAVVISLQTTFSLASNVTLFDLADRMQKCVNSCKSSAEVCQLLGSQRRIFRAGSLCKRKSPECDKDTSICTDLDGVALCQCKSGYFQFNKMDHSCRACEDGYRLENETCMSCPFGLGGLNCGNPYQLITVVIAAAGGGLLLILGIALIVTCCRKNKNDISKLIFKSGDFQMSPYAEYPKNPRSQEWGREAIEMHENGSTKNLLQMTDVYYSPTSVRNPELERNGLYPAYTGLPGSRHSCIFPGQYNPSFISDESRRRDYF [HEG1] | -0.763 | -1.15 | -0.0254 | -0.231
4 | MSYYQRPFSPSAYSLPASLNSSIVMQHGTSLDSTDTYPQHAQSLDGTTSSSIPLYRSSEEEKRVTVIKAPHYPGIGPVDESGIPTAIRTTVDRPKDWYKTMFKQIHMVHKPDDDTDMYNTPYTYNAGLYNPPYSAQSHPAAKTQTYRPLSKSHSDNSPNAFKDASSPVPPPHVPPPVPPLRPRDRSSTEKHDWDPPDRKVDTRKFRSEPRSIFEYEPGKSSILQHERPASLYQSSIDRSLERPMSSASMASDFRKRRKSEPAVGPPRGLGDQSASRTSPGRVDLPGSSTTLTKSFTSSSPSSPSRAKGGDDSKICPSLCSYSGLNGNPSSELDYCSTYRQHLDVPRDSPRAISFKNGWQMARQNAEIWSSTEETVSPKIKSRSCDDLLNDDCDSFPDPKVKSESMGSLLCEEDSKESCPMAWGSPYVPEVRSNGRSRIRHRSARNAPGFLKMYKKMHRINRKDLMNSEVICSVKSRILQYESEQQHKDLLRAWSQCSTEEVPRDMVPTRISEFEKLIQKSKSMPNLGDDMLSPVTLEPPQNGLCPKRRFSIEYLLEEENQSGPPARGRRGCQSNALVPIHIEVTSDEQPRAHVEFSDSDQDGVVSDHSDYIHLEGSSFCSESDFDHFSFTSSESFYGSSHHHHHHHHHHHRHLISSCKGRCPASYTRFTTMLKHERARHENTEEPRRQEMDPGLSKLAFLVSPVPFRRKKNSAPKKQTEKAKCKASVFEALDSALKDICDQIKAEKKRGSLPDNSILHRLISELLPDVPERNSSLRALRRSPLHQPLHPLPPDGAIHCPPYQNDCGRMPRSASFQDVDTANSSCHHQDRGGALQDRESPRSYSSTLTDMGRSAPRERRGTPEKEKLPAKAVYDFKAQTSKELSFKKGDTVYILRKIDQNWYEGEHHGRVGIFPISYVEKLTPPEKAQPARPPPPAQPGEIGEAIAKYNFNADTNVELSLRKGDRVILLKRVDQNWYEGKIPGTNRQGIFPVSYVEVVKKNTKGAEDYPDPPIPHSYSSDRIHSLSSNKPQRPVFTHENIQGGGEPFQALYNYTPRNEDELELRESDVIDVMEKCDDGWFVGTSRRTKFFGTFPGNYVKRL [SORBS2] | -2.13 | 0.899 | 0.819 | -0.773
5 | MTSAAEIKKPPVAPKPKFVVANNKPAPPPIAPKPDIVISSVPQSTKKMKPAIAPKPKVLKTSPVREIGQSPSRKIMLNLEGHKQELAESTDNFNCKYEGNQSNDYISPMCSCSSECIHKLGHRENLCVKQLVLEPLEMNENLENSKIDETLTIKTRSKCDLYGEKAKNQGGVVLKASVLEEELKDALIHQMPPFISAQKHRPTDSPEMNGGCNSNGQFRIEFADLSPSPSSFEKVPDHHSCHLQLPSDECEHFETCQDDSEKSNNCFQSSELEALENGKRSTLISSDGVSKKSEVKDLGPLEIHLVPYTPKFPTPKPRKTRTARLLRQKCVDTPSESTEEPGNSDSSSSCLTENSLKINKISVLHQNVLCKQEQVDKMKLGNKSELNMESNSDAQDLVNSQKAMCNETTSFEKMAPSFDKDSNLSSDSTTVDGSSMSLAVDEGTGFIRCTVSMSLPKQLKLTCNEHLQSGRNLGVSAPQMQKESVIKEENSLRIVPKKPQRHSLPATGVLKKAASEELLEKSSYPSSEEKSSEKSLERNHLQHLCAQNRGVSSSFDMPKRASEKPVWKLPHPILPFSGNPEFLKSVTVSSNSEPSTALTKPRAKSLSAMDVEKCTKPCKDSTKKNSFKKLLSMKLSICFMKSDFQKFWSKSSQLGDTTTGHLSSGEQKGIESDWQGLLVGEEKRSKPIKAYSTENYSLESQKKRKKSRGQTSAANGLRAESLDDQMLSRESSSQAPYKSVTSLCAPEYENIRHYEEIPEYENLPFIMAIRKTQELEWQNSSSMEDADANVYEVEEPYEAPDGQLQLGPRHQHSSSGASQEEQNDLGLGDLPSDEEEIINSSDEDDVSSESSKGEPDPLEDKQDEDNGMKSKVHHIAKEIMSSEKVFVDVLKLLHIDFRDAVAHASRQLGKPVIEDRILNQILYYLPQLYELNRDLLKELEERMLHWTEQQRIADIFVKKGPYLKMYSTYIKEFDKNIALLDEQCKKNPGFAAVVREFEMSPRCANLALKHYLLKPVQRIPQYRLLLTDYLKNLIEDAGDYRDTQDALAVVIEVANHANDTMKQGDNFQKLMQIQYSLNGHHEIVQPGRVFLKEGILMKLSRKVMQPRMFFLFNDALLYTTPVQSGMYKLNNMLSLAGMKVRKPTQEAYQNELKIESVERSFILSASSATERDEWLEAISRAIEEYAKKRITFCPSRSLDEADSENKEEVSPLGSKAPIWIPDTRATMCMICTSEFTLTWRRHHCRACGKIVCQACSSNKYGLDYLKNQPARVCEHCFQELQKLDHQHSPRIGSPGNHKSPSSALSSVLHSIPSGRKQKKIPAALKEVSANTEDSSMSGYLYRSKGNKKPWKHFWFVIKNKVLYTYAASEDVAALESQPLLGFTVIQVKDENSESKVFQLLHKNMLFYVFKAEDAHSAQKWIEAFQEGTIL [FGD6] | -0.173 | 0.213 | 0.03 | -0.0552
6 | MKLKLKNVFLAYFLVSIAGLLYALVQLGQPCDCLPPLRAAAEQLRQKDLRISQLQAELRRPPPAPAQPPEPEALPTIYVVTPTYARLVQKAELVRLSQTLSLVPRLHWLLVEDAEGPTPLVSGLLAASGLLFTHLVVLTPKAQRLREGEPGWVHPRGVEQRNKALDWLRGRGGAVGGEKDPPPPGTQGVVYFADDDNTYSRELFEEMRWTRGVSVWPVGLVGGLRFEGPQVQDGRVVGFHTAWEPSRPFPVDMAGFAVALPLLLDKPNAQFDSTAPRGHLESSLLSHLVDPKDLEPRAANCTRVLVWHTRTEKPKMKQEEQLQRQGRGSDPAIEV [B3GAT3] | -0.256 | -0.376 | -0.044 | 0.166
